Ends that are not written are not given here.
B1: SCP1-NA, full-length stresscopin 1 devoid of amidation at the C-terminus (peptide)
peptide: HPGSRIVLSLDVILGLLQILLEQARARAAREQATTNARILARV-OH

Tests used:
Assay in all cases: cell-based or functional assay
[1] = molecular target: recombinant CRH R2-alpha expressed in 293T cells (UniProt Q13324)
[2] = molecular target: recombinant CRH R2 beta expressed in 293T cells (UniProt Q13324)
[3] = molecular target: recombinant CRH R2 expressed in 293T cells (isoform not stated, Fig. 3f), Q13324
Chain of recombinant CRH R2 expressed in 293T cells (isoform not stated, Fig. 3f), Q13324 (Q13324 20-411): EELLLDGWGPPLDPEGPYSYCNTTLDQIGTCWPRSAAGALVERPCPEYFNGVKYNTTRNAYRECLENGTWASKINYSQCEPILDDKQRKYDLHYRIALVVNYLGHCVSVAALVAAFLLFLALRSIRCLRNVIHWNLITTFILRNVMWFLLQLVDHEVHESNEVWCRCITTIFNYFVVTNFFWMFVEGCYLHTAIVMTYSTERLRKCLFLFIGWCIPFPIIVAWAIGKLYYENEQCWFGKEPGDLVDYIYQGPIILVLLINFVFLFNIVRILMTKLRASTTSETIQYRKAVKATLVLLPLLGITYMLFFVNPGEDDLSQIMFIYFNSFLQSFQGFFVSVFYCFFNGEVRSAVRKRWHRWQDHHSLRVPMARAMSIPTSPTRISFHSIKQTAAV

Row | Molecule | potency in cAMP production, compared to stresscopin 2 and the pufferfish peptide [1] [fold] | potency in cAMP production, compared to stresscopin 2 and the pufferfish peptide [2] [fold] | reduction in ability to stimulate cAMP production, against amidated stresscopin 1 [3] [fold]
1 | stresscopin 1 (full-length 43-amino-acid mature peptide, synthetic, amidated) | > 10 | > 10 | –
2 | B1 | – | – | > 50

— patent US20020082409A1
